Source: the supplement of paper PMC9170038

Tested on: MS2 coat protein
Assay: apparent KD of MS2 coat protein; designed switch direction (-1 OFF switch, 1 ON switch): 1; higher = weaker reporter binding
Procedure, shortened: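 An oligonucleotide input, 200 uM small-molecule ligand, or no input was present during titration of SNAP-549-labelled MS2 coat protein, which was doubled from 0.7 or 1.5 nM to 3 µM. Designed RNA switches had been transcribed on Illumina chips by stalled E. coli RNA polymerase. Apparent KD per design is the median over clusters of curves fitted to normalised cluster fluorescence.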

[1] = input ligand: microRNA oligo, concentration not stated
[2] = Eterna round: R95, input ligand: microRNA oligo, concentration not stated

UUAAUAAAGUAAGGAUAUACAUGAGGAUCACUCGUAGAAGGUACUAAACAUGAGGAUCACCCAUGUACCGGUCCGUAGACUGGA [Mat - Same State NG 1 - JL mod - D1] (Eterna round: R96, puzzle: Same State NG 1)
apparent KD of MS2 coat protein (input ligand: FMN 200 uM): 0.844 µM
apparent KD of MS2 coat protein [1]: 0.108 µM
apparent KD of MS2 coat protein (input ligand: none): 0.364 µM

UUAAUCUGAACAUGAGGAUCACCCAUGUAUCUUAUUUUAGGACAGGAUAUAGAUGUUAAGAAUUACUAGAAGGGUCAGUAUAUU [JR_SSNG3_Sub011] (Eterna round: R96, puzzle: Same State NG 3)
apparent KD of MS2 coat protein (input ligand: FMN 200 uM): 0.0191 µM
apparent KD of MS2 coat protein [1]: 0.0202 µM
apparent KD of MS2 coat protein (input ligand: none): 0.0258 µM

UUAAUGAAGUAAGGAUAUACAUGAGGAUCUCUCGUAGAAGGUACUAUACAUGAGGAUCACCCAUGUGCCGGUCCGUAGACUGGA [JL SSNG1 1.04] (Eterna round: R96, puzzle: Same State NG 1)
apparent KD of MS2 coat protein (input ligand: FMN 200 uM): 0.708 µM
apparent KD of MS2 coat protein [1]: 0.18 µM
apparent KD of MS2 coat protein (input ligand: none): 1.28 µM

UUAAUGAUGUUAGGAUAUACAUGAGGAAUCCUCGUAGAAGGAACAUGACAUGAGGAUCACCCAUGUAACGCUCCGUAGAGCGUA [JL SSNG1 1.17] (Eterna round: R96, puzzle: Same State NG 1)
apparent KD of MS2 coat protein [1]: 0.0447 µM

UUAAUUAAUUAAUUAUACAUGAGGAUCACCCAUGUAAGUGAUCAGGAUAUCAGCUCGAAUAGAGCUGAGAAGGGAUACAUGUAA [SSNG3/13-A1] (Eterna round: R96, puzzle: Same State NG 3)
apparent KD of MS2 coat protein [1]: 0.148 µM

UUAAUUAAUUAAUUAUACAUGAGGAUCACCCAUGUAAGUGAUCAGGAUAUCAGCUCGUUUAGAGCUGAGAAGGGAUACAUGAAU [SSNG3/12-A3] (Eterna round: R96, puzzle: Same State NG 3)
apparent KD of MS2 coat protein (input ligand: FMN 200 uM): 0.0916 µM
apparent KD of MS2 coat protein [1]: 0.0859 µM
apparent KD of MS2 coat protein (input ligand: none): 0.143 µM

UUAAUUUACUGAGGAUAUCGUGUCGACUGAGUUGACAUGAGGAUCACCCAUGUGAGAAGUGGUAUCGAGAAGGCAGUUUUCAUA [JR_SSNG2_Sub024] (Eterna round: R96, puzzle: Same State NG 2)
apparent KD of MS2 coat protein (input ligand: FMN 200 uM): 0.0173 µM
apparent KD of MS2 coat protein [1]: 0.059 µM
apparent KD of MS2 coat protein (input ligand: none): 0.0896 µM

UUAGGAUGUGAAGGAUAUGCCGAGUUAAGCCCAGCAGAAGGUUACAUACCUUUUGAUACAUGAGGAUCACCCAUGUUCUAAGAU [Eternabot solution 45] (Eterna round: R96, puzzle: Same State NG 1)
apparent KD of MS2 coat protein [1]: 0.0338 µM

UUAUUCUAUAUAGGAUAUUGAUGUAAUUUAUUUCAAGAAGGAUAUACAUGAGGAUCACCCAUGUUGGAUAGGGUUAGUUUGUUU [JR_SSNG1_Sub080] (Eterna round: R96, puzzle: Same State NG 1)
apparent KD of MS2 coat protein [1]: 0.0582 µM

UUCACCUUUUUUAACAUGAGGAUCACCCAUGUAUAUUGUACGUAGGAUAUCGAUGCUUUUUUUUUCGAGAAGGACGAUGUAAGU [JR_SSND3_Sub051] (Eterna round: R96, puzzle: Same State NG 3)
apparent KD of MS2 coat protein (input ligand: FMN 200 uM): 0.0386 µM
apparent KD of MS2 coat protein [1]: 0.0342 µM
apparent KD of MS2 coat protein (input ligand: none): 0.0375 µM

UUGAAGAACUAAGGAUAUUGAAUACAUAUGUUUAACAUGAGGAUCACCCAUGUGGGUUGCGGUGUCGAGAAGGUAGAAUAAUAG [Mat - same State NG 2 - JL mod - D96] (Eterna round: R96, puzzle: Same State NG 2)
apparent KD of MS2 coat protein (input ligand: FMN 200 uM): 0.185 µM
apparent KD of MS2 coat protein [1]: 0.148 µM
apparent KD of MS2 coat protein (input ligand: none): 0.272 µM

UUGAAGAAUUAAGGAUAUCGAGUACAUAUGUUUAACAUGAGGAUCACCCAUGUGGGUUGCGGUAUCGAGAAGGUAAAUUACAAG [JL SSNG2 1.43] (Eterna round: R96, puzzle: Same State NG 2)
apparent KD of MS2 coat protein (input ligand: FMN 200 uM): 0.0453 µM
apparent KD of MS2 coat protein [1]: 0.032 µM
apparent KD of MS2 coat protein (input ligand: none): 0.0539 µM

UUGAAGAAUUAAGGAUAUUGAGUACAUAUGUUUAACAUGAGGAUCACCCAUGUGGGUUGCGGUAUCGAGAAGGUAAAUUAAUAG [Mat - same State NG 2 - JL mod - D66] (Eterna round: R96, puzzle: Same State NG 2)
apparent KD of MS2 coat protein (input ligand: FMN 200 uM): 0.0944 µM
apparent KD of MS2 coat protein [1]: 0.126 µM
apparent KD of MS2 coat protein (input ligand: none): 0.157 µM

UUGAAGAAUUAAGGAUAUUGAUUACAUAUGUUUAACAUGAGGAUCACCCAUGUGGGUUGCGGUAUCGAGAAGGUAAAUUAAUAG [Mat - same State NG 2 - JL mod - D81] (Eterna round: R96, puzzle: Same State NG 2)
apparent KD of MS2 coat protein (input ligand: FMN 200 uM): 0.168 µM
apparent KD of MS2 coat protein [1]: 0.181 µM
apparent KD of MS2 coat protein (input ligand: none): 0.174 µM

UUGAAGACGGACAAGGAUAUGUCAAAGGAAACAUGAGGAUCACCCAUGUGGAGAUUGGAGAAGAAACAGAAGGUGUACGGAGAGA [JR_SS2_Sub008] (puzzle: Same State 2)
apparent KD of MS2 coat protein (Eterna round: R95, input ligand: FMN 200 uM): 0.0275 µM
apparent KD of MS2 coat protein [2]: 0.0136 µM
apparent KD of MS2 coat protein (Eterna round: R95, input ligand: none): 0.0214 µM

UUGAAUAAUUAAGGAUAUCGAGUACAUAUGUUAAACAUGAGGAUCACCCAUGUGGGUUGCGGUAUCGAGAAGGUAAAAGACAAG [Mat - Same State NG 2 - JL mod - D59] (Eterna round: R96, puzzle: Same State NG 2)
apparent KD of MS2 coat protein (input ligand: FMN 200 uM): 0.0312 µM
apparent KD of MS2 coat protein [1]: 0.0256 µM
apparent KD of MS2 coat protein (input ligand: none): 0.042 µM

UUGAGAUGUACAGGAUAUGGUGAGGAUCACCCACUAGAAGGGUGCACAUGUGAAUCGGACAUGAGGAUCACCCAUGUAGGGCGU (Eterna round: R96, puzzle: Same State NG 1)
apparent KD of MS2 coat protein (input ligand: FMN 200 uM): 0.187 µM
apparent KD of MS2 coat protein [1]: 0.207 µM
apparent KD of MS2 coat protein (input ligand: none): 0.369 µM

UUGAGGAAUUAAGGAUAUUGAGUACAUAUGUUUAACAUGAGGAUCACCCAUGUGGGUUGCGGUAUCGAGAAGGUAAAUUACAAG [Mat - same State NG 2 - JL mod - D74] (Eterna round: R96, puzzle: Same State NG 2)
apparent KD of MS2 coat protein [1]: 0.0978 µM

UUGAUAUGCGCAGGAUAUGGUGAGGAUCACCCACUAGAAGGGUGCACAUGAGAAUCGAACAUGAGGAUCACCCAUGUUCUGAGC (Eterna round: R96, puzzle: Same State NG 1)
apparent KD of MS2 coat protein (input ligand: FMN 200 uM): 0.831 µM
apparent KD of MS2 coat protein [1]: 0.295 µM
apparent KD of MS2 coat protein (input ligand: none): 1.03 µM

UUGCGCUGUCGAGAGGAUAUGCGGUGUUGGACAUGAGGAUCACCCAUGUUAGCGAUUGCUUUACGGUAGAAGGCUCUUCAGCUGC [salish99_ss2_r3_098] (Eterna round: R96, puzzle: Same State 2)
apparent KD of MS2 coat protein (input ligand: FMN 200 uM): 0.074 µM
apparent KD of MS2 coat protein [1]: 0.0501 µM
apparent KD of MS2 coat protein (input ligand: none): 0.0828 µM

UUGCGCUGUCGAGAGGAUAUGCGGUGUUGGACAUGAGGAUCACCCAUGUUAGCGAUUGCUUUACGGUAGAAGGCUCUUCAGCUGC [salish99_ss2_r3_098] (puzzle: Same State 2)
apparent KD of MS2 coat protein [2]: 0.0635 µM

UUGCGGAAUUAAGGAUAUUGAGUACAUAUGUUUAACAUGAGGAUCACCCAUGUGGGUUGCGGUAUCGAGAAGGUAACUUACUAC [salish99_SSNG2_r04_803] (Eterna round: R96, puzzle: Same State NG 2)
apparent KD of MS2 coat protein (input ligand: FMN 200 uM): 0.11 µM
apparent KD of MS2 coat protein [1]: 0.0805 µM
apparent KD of MS2 coat protein (input ligand: none): 0.102 µM

UUGCUCGUGUGAGGAUAUGCCGCCGUUUCGGCUGCAGAAGGUACUGUAAUACAUGAGGAUCACCCAUGUCUCUGUUGUUUCGUG [salish99_SSNG1_r04_934] (Eterna round: R96, puzzle: Same State NG 1)
apparent KD of MS2 coat protein (input ligand: FMN 200 uM): 0.0171 µM
apparent KD of MS2 coat protein [1]: 0.0164 µM
apparent KD of MS2 coat protein (input ligand: none): 0.0193 µM

UUGCUCGUGUGAGGAUAUGCCGCCGUUUCGGCUGCAGAAGGUGCUACGUUACAUGAGGAUCACCCAUGUCUCUGUUGUUUCGUG [salish99_SSNG1_r04_941] (Eterna round: R96, puzzle: Same State NG 1)
apparent KD of MS2 coat protein (input ligand: FMN 200 uM): 0.0175 µM
apparent KD of MS2 coat protein [1]: 0.0197 µM
apparent KD of MS2 coat protein (input ligand: none): 0.0211 µM

UUGCUUCUCGUAGGAUAUGUAGGAUAUGCCUACAUGAGGAUCACCCAUGUUCGCAUGGCAGAAGGACAGAAGGACGAUCACCCU [pwkr ssNG2 2FMN + 1F5.8] (Eterna round: R96, puzzle: Same State NG 2)
apparent KD of MS2 coat protein (input ligand: FMN 200 uM): 0.0435 µM
apparent KD of MS2 coat protein [1]: 0.0881 µM
apparent KD of MS2 coat protein (input ligand: none): 0.472 µM

UUGGGUUUGCGAGGAUAUCGUAUGUGAUUUGAACGAGAAGGCGCUAUUUAAAUUAUUUUAACAUAACAUGAGGAUCACCCAUGU [JR_SSNG1_Sub021] (Eterna round: R96, puzzle: Same State NG 1)
apparent KD of MS2 coat protein [1]: 0.0142 µM

UUGUGUUUGCGAGGAUAUCGUUUGUUGAAGUUACGAGAAGGCGCUCUCAUUACAUGAGGAUCACCCAUGUCUUUGAUGCAUGAU [JR_SSNG1_Sub071] (Eterna round: R96, puzzle: Same State NG 1)
apparent KD of MS2 coat protein (input ligand: FMN 200 uM): 0.0547 µM
apparent KD of MS2 coat protein [1]: 0.0445 µM
apparent KD of MS2 coat protein (input ligand: none): 0.0682 µM

UUUACUUUCAUAGGAUAUCAUGCGAAAAUUGCGUGAGAAGGGUGCACACUGUCUUUCUCGGAGUACAUGAGGAUCACCCAUGUG [SameState NG1 #67] (Eterna round: R96, puzzle: Same State NG 1)
apparent KD of MS2 coat protein (input ligand: FMN 200 uM): 0.0456 µM
apparent KD of MS2 coat protein [1]: 0.0368 µM
apparent KD of MS2 coat protein (input ligand: none): 0.0443 µM
